Results on 21 variants are retold here after the supplement of paper PMC10567573.

Sequences and labels used below:
B1: SPSB1 (parent)
chain: DMRDPTYRPLKQELQGLDYCKPTR
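Also: lentivirally expressed fusions sorted by FACS into six bins by GFP to DsRed ratio, PSI derived from sequencing read proportions per bin multiplied by bin number.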

Variants of B1 are the subject of this series. The experiment in a line: protein stability index of a GFP-peptide fusion (GPS, HEK-293T) (PSI 1-6); higher = more stable. As to conditions: c terminus: a fixed tail appended.
Turning to DMRDPTYRPLKQELQELDYCKPTR [G16E], the protein stability index worked out at 2.93.
For DMRDPTYRPLKCELQGLDYCKPTR [Q12C] the value was 2.74; for DMRDPTYRPLKQWLQGLDYCKPTR [E13W], 2.44.
For DMRDPTYRPLKQRLQGLDYCKPTR [E13R] the value was 2.98; for DMRDPTYRPLKQELQGLDPCKPTR [Y19P], 4.56.
For DMRDPTYRPLKQEQQGLDYCKPTR [L14Q], the protein stability index came out at 4.29.
As for DMRDPTYRPFKQELQGLDYCKPTR [L10F], the figure is 3.56; as for DMRDPTARPLKQELQGLDYCKPTR [Y7A], 2.08.
As for DMRDPTYRPLKQELNGLDYCKPTR [Q15N], the figure is 3.52.
For DMRDPTYRPLKQELYGLDYCKPTR [Q15Y] the value was 3.4; for DMRDPTYRPLKQELKGLDYCKPTR [Q15K], 3.59; for DMRDPTYRPLKQELQGCDYCKPTR [L17C], 3.85.
For DMRDPTYRPLKQELQGLDYRKPTR [C20R], the protein stability index is 4.42.
As for DMRDPTYTPLKQELQGLDYCKPTR [R8T], the figure is 3.08; as for DMRDPTYAPLKQELQGLDYCKPTR [R8A], 3.8; as for DMRDPTYCPLKQELQGLDYCKPTR [R8C], 2.79.
For DMRDPTYRPLDQELQGLDYCKPTR [K11D] the value was 3.85.
For DMRDPTYRPLMQELQGLDYCKPTR [K11M] the value was 3.71; for DMRDPTYRPLNQELQGLDYCKPTR [K11N], 4.04.
Consider DMRDPVYRPLKQELQGLDYCKPTR [T6V], for which the protein stability index came to 3.31.
For YMRDPTYRPLKQELQGLDYCKPTR [D1Y] the value was 2.99.
